{"source": "paper PMC3002993", "experiment_in_all_cases": "co-immunoprecipitation (HA-specific IP), Western blot densitometry", "key": {"p7 of JFH1": {"target": "p7 of JFH1 (UniProt Q99IB8)", "settings": "Huh7.5 cells transfected with full-length genome, harvested 72 h later; two independent experiments; read off a plot"}, "[1]": {"target": "nonstructural protein 3 (NS3) of JFH1 (UniProt Q99IB8)", "settings": "Huh7.5 cells transfected with full-length genome, harvested 72 h later; two independent experiments; read off a plot"}, "[2]": {"target": "envelope glycoprotein E2 of JFH1 (UniProt Q99IB8)", "settings": "harvested 72 h later, two independent experiments, read off a plot"}, "[3]": {"target": "nonstructural protein 5A (NS5A) of JFH1mut4-6 (UniProt Q99IB8)", "settings": "Huh7.5 cells transfected with full-length genome, harvested 72 h later; two independent experiments; read off a plot"}, "E2 V341A of JFH1": {"target": "E2 V341A of JFH1", "settings": "F77A-E2 genome; Huh7.5 cells, harvested 72 h later; two independent experiments; read off a plot"}, "NS3 Q221L of JFH1": {"target": "NS3 Q221L of JFH1", "settings": "W35F-NS3 genome; Huh7.5 cells, harvested 72 h later; two independent experiments; read off a plot"}}}
{"substance": "HA- and Flag-tagged NS2 of JFH1mut4-6 (HAF-NS2) (from UniProt Q99IB8) CT1.h", "values": [{"measurement": "percent of parent", "setting": "p7 of JFH1", "value": 23, "unit": "%"}, {"measurement": "percent of parent", "setting": "[1]", "value": 26, "unit": "%"}, {"measurement": "percent of parent", "setting": "[2]; Huh7.5 cells transfected with full-length genome", "value": 30, "unit": "%"}, {"measurement": "percent of parent", "setting": "[2]; genome also carries the pseudoreversion p7-E3D (CT1.h-p7), Huh7.5 cells", "value": 84, "unit": "%"}, {"measurement": "percent of parent", "setting": "[3]", "value": 56, "unit": "%"}]}
{"substance": "m1; m2 NS2:F77A; E2:V341A", "values": [{"measurement": "percent of parent", "setting": "E2 V341A of JFH1", "value": 89, "unit": "%"}]}
{"substance": "m1; m4 NS2:W35F; NS3:Q221L", "values": [{"measurement": "percent of parent", "setting": "NS3 Q221L of JFH1", "value": 52, "unit": "%"}]}
